Data as given in paper doi:10.1101/2025.10.13.682238.

Biological target: GST tag (glutathione S-transferase affinity tag, free in the ATAD2B sample)
Assay: SEC; Superdex 200 Increase 10/300 GL on an ÄktaPrime system, ATAD2B sample from E. coli compared with a molecular weight standard mixture (thyroglobulin 670 kDa, ovalbumin 44 kDa)

Sequence of GST tag (glutathione S-transferase affinity tag, free in the ATAD2B sample) (P08515 2-218): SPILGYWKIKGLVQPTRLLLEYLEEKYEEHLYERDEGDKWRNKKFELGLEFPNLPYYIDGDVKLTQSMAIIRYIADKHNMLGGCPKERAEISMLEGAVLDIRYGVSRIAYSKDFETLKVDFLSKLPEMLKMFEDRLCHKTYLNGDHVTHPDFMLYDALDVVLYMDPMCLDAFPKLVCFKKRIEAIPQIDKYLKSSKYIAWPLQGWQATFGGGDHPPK

stoichiometry N: 2
Substance: GST tag (glutathione S-transferase affinity tag, free in the ATAD2B sample) (natural protein)
